Values quoted from earlier work, collected in article PMC9502310.

Molecular target: IL-1β (Homo sapiens) (UniProt P01584)

B15 (from UniProt P25212)
Kd: 0.234 nM
